The source of these data is US20200157194A1 (Regeneron, published 2020).

Where two headings read alike, the source gives them in different places.

Experiment [1] concerns the target T1, recombinant human GREM1 (hGREM1-His; C-terminal 10His tagged, R&D, #5190-GR) (human, UniProt O60565 25-184, limits assumed).
T1 sequence: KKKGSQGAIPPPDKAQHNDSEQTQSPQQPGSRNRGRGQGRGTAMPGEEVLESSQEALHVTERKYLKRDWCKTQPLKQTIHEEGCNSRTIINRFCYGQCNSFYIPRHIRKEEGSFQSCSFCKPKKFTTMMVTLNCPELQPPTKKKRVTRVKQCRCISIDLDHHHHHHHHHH
The experiment can be described thus: cell-based or functional assay.

The target of experiment [2] is T2, human GREM1 (hGREM1-His; SEQ ID NO: 595) (human, UniProt O60565 25-184).
T2 construct: also called biotin-hGREM1-His; recombinant human GREM1 protein
T2 sequence: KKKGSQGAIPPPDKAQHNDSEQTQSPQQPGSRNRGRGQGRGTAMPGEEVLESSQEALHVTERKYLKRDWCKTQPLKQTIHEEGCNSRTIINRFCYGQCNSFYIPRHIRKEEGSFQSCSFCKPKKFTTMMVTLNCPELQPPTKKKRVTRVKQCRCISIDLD
Nature of the experiment: SPR, Biacore T200, 25 C, mAb captured, hGREM1-His injected.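 Further: Heparin-supplemented HBS-EP+ used as running buffer, association and dissociation phases followed, Kd computed as koff divided by kon and half-life derived from koff.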 A general note: SPR reads the build-up and loss of mass on a sensor chip optically.

The target of experiment [3] is T1, recombinant human GREM1 (hGREM1-His; …). Nature of the experiment: cell-based or functional assay. The source holds these as a separate data set.
Experiment [4] shares this target. The experiment can be described thus: cell-based or functional assay. The source holds these as a separate data set.
Experiment [5] shares this target. The experiment can be described thus: BLI Octet, mAb captured, 100 nM GREM1.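 Further: octet Red96 biolayer interferometry at 25 °C in pH 7.4 HEPES saline buffer, antibodies held on anti-human IgG Fc capture biosensors, then exposed to GREM1.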 For orientation: In BLI a coated tip is dipped into the sample, and binding shifts an interference pattern.
Experiment [6] has the same target. Nature of the experiment: BLI Octet, mAb captured, 100 nM GREM1 + 5 uM heparin.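 Further: octet Red96 biolayer interferometry at 25 °C, antibodies captured on anti-human IgG Fc biosensors, pH 7.4 HEPES buffer with 0.1 mg/mL BSA.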
The target of experiment [7] is T2, human GREM1 (hGREM1-His; SEQ ID NO: 595). Nature of the experiment: SPR, Biacore T200, 37 C, mAb captured, hGREM1-His injected.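 Further: HBS-EP running buffer containing heparin, association and dissociation phases tracked, KD computed as koff over kon and half-life derived from koff.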
Experiment [8] deals with T1, recombinant human GREM1 (hGREM1-His; …). Nature of the experiment: BLI Octet, mAb captured, 100 nM GREM1 without vs with 5 uM heparin.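 Further: octet Red96 biolayer interferometry at 25 °C, antibodies captured on anti-human IgG Fc biosensors, association of GREM1 measured with versus without heparin in HEPES-buffered saline, pH 7.4.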
The target in experiment [9] is T2, human GREM1 (hGREM1-His; SEQ ID NO: 595). Nature of the experiment: competition ELISA, biotin-hGREM1-His (100 pM) binding to coated hBMP4. (In general: ELISA stands for enzyme-linked immunosorbent assay.)

B1: H2bM2890N (antibody, mouse IgG2, V domains shown)
VH: QVQLVESGGGVVQPGRSLRLTCAASGFTFSSFGMHWVRQAPGKGLEWVAIIWYDGSNKYYADSVKGRFTISRDNSKNTLYLQMNSLRAEDTAVYYCAREDNWTRDYFDYWGQGTLVTVSS
VL: EIVLTQSPATLSLSPGERATLSCRASQSVSNFLAWYQQKPGQAPRLLIYDASNRATGIPARFSGSGSGTDFTLTISSLEPEDFAVYYCQQRSNWPPLPFGGGTKVEIK
notes: H2M prefix = mouse IgG2 Fc (here H2bM); also called H2M2890N
Consider B1, for which the “IC50 [M], inhibition of hGREM1-His, W-20-17/BRE-luc luciferase (100 pM hBMP4, 10 nM hGREM1-His)” value in experiment [1] was found to be 2.1e-09 M. Moreover, in experiment [2], the Kd was found to be 130 nM, the koff was found to be 0.001 s⁻¹, the kon was 10000 M⁻¹ s⁻¹ and the t1/2 worked out at 11.6 min.

B2: H4H6260P (antibody, human IgG4, V domains shown)
VH: QVQLVESGGGVVQPGRSLRLSCAASGFTFSTYGMHWVRQAPGKGLEWVAIIWYDGSNYYYADSVKGRFTISRDNSKNTLYLQMNSLRAEDTAVYYCAREDRNDVFDIWGQGTMVTVSS
VL: EIVLTQSPATLSLSPGERATLSCRASQSVSSFLAWYQQKPGQAPRLLIYDSSNRATGIPARFSGSGSGTDFTLTISSLEPEDFAVYYCQQLSNWPPITFGQGTRLEIK
notes: H4H prefix = human IgG4 Fc
B2: the “IC50 [M], inhibition of hGREM1-His, W-20-17/BRE-luc luciferase (100 pM hBMP4, 10 nM hGREM1-His)” value in experiment [3] amounted to 4.6e-10 M. Further, in experiment [4], the “hGREM1-His Inhibition IC50, M; W-20-17 cell differentiation assay (alkaline phosphatase)” value was found to be 3.3 nM. Further, in [5], the “Binding Signal with 30 sec Association” value came out at 0.24 nm and the “Binding Signal with 300 sec Association” value worked out at 0.42 nm. In experiment [6], the “Binding Signal with 30 sec Association” value stood at 0.07 nm and the “Binding Signal with 300 sec Association” value was found to be 0.37 nm. In [2], this molecule showed a Kd of 0.669 nM, a koff of 6.51e-05 s⁻¹, a kon of 97400 M⁻¹ s⁻¹ and a t1/2 of 177 min. In [7], the Kd was found to be 1.71 nM, the koff was determined as 0.000285 s⁻¹, the kon amounted to 166000 M⁻¹ s⁻¹ and the t1/2 came to 41 min. Moreover, in [8], the “Reduction in Signal from Heparin at 30 sec” value (from here on “Reduction … at 30 sec”) was found to be 0.17 nm and the “Reduction in Signal from Heparin at 300 sec” value (“Reduction … at 300 sec” below) amounted to 0.05 nm. In experiment [9], the “% blocked at maximum Ab tested (20 nM)” value was found to be 87% and the IC50 is below 0.025 nM.

B3: H2bM2785N (antibody, mouse IgG2, V domains shown)
VH: EVQLLESGGGLVQPGGSLRLSCAASGFTFSSYVMNWVRQAPGKGLEWVSAISGSGGSTSYADSVKGRSTISRDNSKNTLYLQMNSLRAEDTAVYYCAKGDIAAIVFDAFDIWGQGTMVTVSS
VL: DIQMTQSPSSLSASVGDRVTITCQASQDISNCLNWYQHKPGKAPKLLIYDASYLETGGPSRFSGSGSGTDFTFTIRSLQPEDFATYYCQQYDNLPYTFGQGTKLEIK
In the case of B3, the “IC50 [M], inhibition of hGREM1-His, W-20-17/BRE-luc luciferase (200 pM hBMP4, 20 nM hGREM1-His)” value in experiment [1] worked out at 2.7e-08 M.

B4: H4H6248P (antibody, human IgG4, V domains shown)
VH: QVQLVESGGGVVQPGRSLRLSCAASGFTFSNYGMHWVRQVPGKGLEWVAVIWYDGSNKYYADSVKGRFTISRDNSKNTLYLQMNSVRAEDTAVYYCARDDYGDSPGFDYWGQGTLVTVSS
VL: EIVMTQSPATLSVSPGERATLSCRASQSVSSSLAWYQQKPGQAPRLLIYDASTRATGIPARFSGSGSGTEFTLTISGLQSEDFAVYYCQQYNNWPPWTFGQGTKVEIK
notes: H4H prefix = human IgG4 Fc
In the case of B4, the “IC50 [M], inhibition of hGREM1-His, W-20-17/BRE-luc luciferase (100 pM hBMP4, 10 nM hGREM1-His)” value in [3] was 5.3e-10 M. The “hGREM1-His Inhibition IC50, M; W-20-17 cell differentiation assay (alkaline phosphatase)” value in experiment [4] amounted to 5.6 nM. In experiment [5], the “Binding Signal with 30 sec Association” value amounted to 0.21 nm and the “Binding Signal with 300 sec Association” value came out at 0.42 nm. Also, in experiment [6], the “Binding Signal with 30 sec Association” value is 0.04 nm and the “Binding Signal with 300 sec Association” value was found to be 0.37 nm. Moreover, in experiment [2], binding was characterised by a dissociation constant (Kd) of 1.54 nM, the koff was 7.73e-05 s⁻¹, the kon was found to be 50300 M⁻¹ s⁻¹ and the t1/2 came to 149 min. In [7], this molecule gave a Kd of 5.69 nM, a koff of 0.000487 s⁻¹, a kon of 85500 M⁻¹ s⁻¹ and a t1/2 of 24 min. In [8], the “Reduction … at 30 sec” value was found to be 0.17 nm and the “Reduction … at 300 sec” value is 0.05 nm. In experiment [9], the “% blocked at maximum Ab tested (20 nM)” value worked out at 62% and the IC50 came out at 0.21 nM.

B5: H4H6251P (antibody, human IgG4, V domains shown)
VH: QVQLVESGGGVVQPGKSLRLSCAASGFTFSRYGMHWVRQAPGKGLEWVAVIWYDGSNKYYADSVKGRFTISRDNSKNTLYLQMNSLRADDTAMYYCARDDYGDSPGFDFWGQGTLVTVSS
VL: EIVMTQSPATLSVSPGERATLSCRASQSVSSNLAWYQQKPGQAPRLLIYDASTRATGIPARFSGTGSGTEFTLTISSLQSEDFALYYCQQYDDWPPWTFGQGTKVEIK
notes: H4H prefix = human IgG4 Fc
Take B5: the “IC50 [M], inhibition of hGREM1-His, W-20-17/BRE-luc luciferase (100 pM hBMP4, 10 nM hGREM1-His)” value in experiment [3] stood at 6.3e-10 M. The “hGREM1-His Inhibition IC50, M; W-20-17 cell differentiation assay (alkaline phosphatase)” value in [4] is 11 nM. Besides, in experiment [5], the “Binding Signal with 30 sec Association” value is 0.27 nm and the “Binding Signal with 300 sec Association” value turned out to be 0.45 nm. Further, in [6], the “Binding Signal with 30 sec Association” value was 0.03 nm and the “Binding Signal with 300 sec Association” value amounted to 0.36 nm. In experiment [2], this molecule gave a Kd of 23.1 nM, a koff of 0.000652 s⁻¹, a kon of 28200 M⁻¹ s⁻¹ and a t1/2 of 18 min. In experiment [7], this molecule yielded a Kd of 275 nM, a koff of 0.00694 s⁻¹, a kon of 25300 M⁻¹ s⁻¹ and a t1/2 of 2 min. Moreover, in [8], the “Reduction … at 30 sec” value was 0.24 nm and the “Reduction … at 300 sec” value worked out at 0.09 nm. Also, in experiment [9], the “% blocked at maximum Ab tested (20 nM)” value was determined as 62% and the IC50 turned out to be 0.11 nM.

B6: H4H6270P (antibody, human IgG4, V domains shown)
VH: QVQLVESGGDVVQPGRSLRLSCAASGFTFSSYGMHWVRQAPGKGLEWVAIIWNDGSNKYYTDSVKGRFTISRDNSKNTLYLQMNGLRAEDTAIYYCARDQDQFDYWGQGTLVTVSS
VL: EIVMTQSPATLSVSPGERATLSCRASQSISTNLAWYRQKPGQAPRLLIYDASTRATGIPARFSGSGSGTDFTLTISSLQSEDFAVYYCQQYSNWPPYTFGQGTKLEIK
notes: H4H prefix = human IgG4 Fc
Take B6: the “IC50 [M], inhibition of hGREM1-His, W-20-17/BRE-luc luciferase (100 pM hBMP4, 10 nM hGREM1-His)” value in experiment [3] worked out at 5.4e-10 M. In experiment [4], the “hGREM1-His Inhibition IC50, M; W-20-17 cell differentiation assay (alkaline phosphatase)” value was found to be 3.1 nM. Moreover, in experiment [5], the “Binding Signal with 30 sec Association” value turned out to be 0.2 nm and the “Binding Signal with 300 sec Association” value turned out to be 0.39 nm. In experiment [6], the “Binding Signal with 30 sec Association” value came out at 0.05 nm and the “Binding Signal with 300 sec Association” value worked out at 0.33 nm. In [2], the Kd is 4.08 nM, the koff was 0.000175 s⁻¹, the kon was 42900 M⁻¹ s⁻¹ and the t1/2 was 66 min. In experiment [7], this molecule yielded a Kd of 6.79 nM, a koff of 0.00065 s⁻¹, a kon of 95800 M⁻¹ s⁻¹ and a t1/2 of 18 min. In addition, in [8], the “Reduction … at 30 sec” value came out at 0.15 nm and the “Reduction … at 300 sec” value was 0.06 nm. Also, in experiment [9], the “% blocked at maximum Ab tested (20 nM)” value was determined as 62% and the IC50 worked out at 1.9 nM.

B7: H4H6256P (antibody, human IgG4, V domains shown)
VH: QVQLVESGGGVVQPGRSLRLSCAASGFTFSAYGMHWVRQGPGKGLEWVAVIWYDGSNKYYADSVKGRFTISRDNSKNTLYLQMNRLRAEDTAVYYCARDDYGDSPGFDHWGQGTLVTVSS
VL: EIVMTQSPATLSVSPGERATLSCRASQSVSSELAWYQQKPGQAPRLLLYGASTRATGIPARFSGSGSGTEFTLTISSLQSEDFAVYYCQQYSNWPPWTFGQGTKVEIK
notes: H4H prefix = human IgG4 Fc
As to B7, the “IC50 [M], inhibition of hGREM1-His, W-20-17/BRE-luc luciferase (100 pM hBMP4, 10 nM hGREM1-His)” value in [3] came out at 5.4e-10 M. Further, in [4], the “hGREM1-His Inhibition IC50, M; W-20-17 cell differentiation assay (alkaline phosphatase)” value amounted to 5.7 nM. In [5], the “Binding Signal with 30 sec Association” value came out at 0.2 nm and the “Binding Signal with 300 sec Association” value was determined as 0.4 nm. For the same molecule, in [6], the “Binding Signal with 30 sec Association” value is 0.07 nm and the “Binding Signal with 300 sec Association” value amounted to 0.38 nm. Also, in experiment [2], the Kd is 1.19 nM, the koff came to 0.000107 s⁻¹, the kon is 90000 M⁻¹ s⁻¹ and the t1/2 amounted to 108 min. In experiment [7], the Kd came out at 4.08 nM, the koff was 0.000466 s⁻¹, the kon came to 114000 M⁻¹ s⁻¹ and the t1/2 was found to be 25 min. Further, in experiment [8], the “Reduction … at 30 sec” value is 0.13 nm and the “Reduction … at 300 sec” value turned out to be 0.02 nm. For the same molecule, in experiment [9], the “% blocked at maximum Ab tested (20 nM)” value amounted to 75% and the IC50 amounted to 0.087 nM.

What is called Kd is a measure of binding affinity in units of concentration. Low values mean a tighter complex, high ones a looser complex. The koff is a measure of how fast the partners let go of each other. Read a low koff as a long-lived complex. One may read the kon as a measure of how fast the partners come together. Low readings indicate slow association, high ones fast association. As a reminder, the IC50 is the concentration needed to halve the response being measured.
